B1: mAb 10F13 (antibody, V domains shown)
VH: QVQLVQSGGGVVQPGRSLRLSCAASGFPFRIYSMHWVRQAPGKGLEWVALISYDGTNKQYADSVNGRFTISRDNSENTMYLQMNSLRPEDTAIYYCATDIVELVTATDYWGQGTLVTVSS
VL: AVVTQSPGTLSLSPGDRATLSCRASQSVSTSLGWYQQKPGQSPRLLIYGTSRRATGVPDRFSGSGSETDFTLTISRLEPEDFSVYYCQQYGSSPYTFGQGTRLEIK
notes: The printed light chain has an unusual N-terminal part
B2: mAb D25 (antibody, V domains shown)
VH: QVQLVQSGAEVKKPGSSVMVSCQASGGPLRNYIINWLRQAPGQGPEWMGGIIPVLGTVHYAPKFQGRVTITADESTDTAYIHLISLRSEDTAMYYCATETALVVSTTYLPHYFDNWGQGTLVTVSS
VL: DIQMTQSPSSLSAAVGDRVTITCQASQDIVNYLNWYQQKPGKAPKLLIYVASNLETGVPSRFSGSGSGTDFSLTISSLQPEDVATYYCQQYDNLPLTFGGGTKVEIKR
B3: motavizumab (antibody, V domains shown)
VH: QVTLRESGPALVKPTQTLTLTCTFSGFSLSTAGMSVGWIRQPPGKALEWLADIWWDDKKHYNPSLKDRLTISKDTSKNQVVLKVTNMDPADTATYYCARDMIFNFYFDVWGQGTTVTVSS
VL: DIQMTQSPSTLSASVGDRVTITCSASSRVGYMHWYQQKPGKAPKLLIYDTSKLASGVPSRFSGSGSGTEFTLTISSLQPDDFATYYCFQGSGYPFTFGGGTKVEIK
B4: mAb 14C16 (antibody, V domains shown)
VH: QVQLGESGPALVKPTQTLTLTCTFSGFSLSTSEMCVSWIRQPPGKALEWLALIDWDGDKFFSTSLQSRLTISKSPSNNQVVLTMTNMDPVDSGTYFCARSTVRRSSGYYYYVLDVWGQGTLVTVSS
VL: QIVMTQSPSSLSASVGDRVTISCRASQSIGTYVNWYQHKPGKAPKVLISGASNLHSGVPSRFSGSGSGTDFTLTISSLQPEDFATYYCQQSYSPLTFGGGTTVEMK
B5: mAb 12I1 (antibody, V domains shown)
VH: QVQLVQSGGGVVQPGQSLRLSCAASGFSFSDYPIHWVRQAPGKGLEWVAGISYYGSNKFYADSVRGRFTISRDTSKNTFNLQMNSLKSEDTAVYYCARDGNPPRFLEYFDYWGQGTLVTVSS
VL: QPVVTQPRSVSGSPGQSVTISCTGSSSDVGGYNFVSWYRHHPGKAPKLLIYHVTKRPSGVPDRFSGSKSGNTASLTISGLQAEDEADYYCCSYAGSYTYVLFGGGTKLTVL
notes: Non-neutralizing, antigenic site VII
B6: mAb 3J20 (antibody, V domains shown)
VH: EVQLVESGGGLVQPGGSLRLSCAASGFTFSSFTMNWVRQAPGKGLQWVSTISGSGGLTYYADSVKGRFTISRDNSKNTLSLQMNSLRAEDTAVYYCARDLEFTVTSYGGYYFEYWGQGTLVTVSS
VL: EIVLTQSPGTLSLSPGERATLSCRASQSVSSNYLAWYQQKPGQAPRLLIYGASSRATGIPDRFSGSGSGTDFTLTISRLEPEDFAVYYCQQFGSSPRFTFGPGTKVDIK
B7: mAb 4B6 (antibody, V domains shown)
VH: QVQLVQSGGGLAQPGRSLRLSCRASGFTFGDFNMNWFRQAPGKGLEWVGFIRRKAFGGATEYAASVKGRLTISRDDSKSIAYLQMNSLKTEDTAVYYCTRERGYVGSGGPFFDYWGQGTLVTVSS
VL: QAVVTQPPSVSGAPGQRVTISCTGSSSNIGAGYDVHWYQQLPGTAPKLLIYGDSNRPSGVPDRFSGSSSGTSASLAITGLQAEDEADYYCQSYDNSLSGSVFGTGTKVTVL
B8: mAb 13A8 (antibody, V domains shown)
VH: QVQLVESGGGVVQPGKSLRLSCAASGYIFSSYDMHWVRQAPGKGLEWVAVISFDGTTQHYADSVRGRFTVSRDNSQNTVFLQMNSLRPEDTAVYYCVKEYVIVSTFFDYWGQGTLVTVSS
VL: DIVMTQSPSSLSASVGDRVTITCRASQGIRNALGWYQHKPGKAPKVLIYAASRLQSGVPSRFSGSGSGTDFTLTISSLQPEDFATYYCLQDFNYPWTFGHGTKVEIK
B9: mAb 9J5 (antibody, V domains shown)
VH: QVQLVQSGAEVKKPGSSVTVSCKASGGSFTNYAFSWVRQAPGQGLEWMGGIIPLLNMPNYAQKFRGRVTISADQSTTTAYMELSRLTSEDTAIYFCARGGQVGDFIVLRHFDSWGQGTLVTVSS
VL: TLSCRASESVSNYLAWYQQKPGQTPRLLIYGASTRATGIPARFSGSGSGSEFTLTISSLQSEDFAVYYCQQYNDWPRFSFGQGTKLEIK
B10: mAb 14N4 (antibody, V domains shown)
VH: QVQLVESGGGLIQPGGSLRLSCAVSGFTVSSKYMTWVRQAPGKGLEWVSVIYGGGSTYYADSVVGRFTISRDNSKNTLYLQMNSLRAEDTAVYYCASRLGVRATTGDLDYWGQGTLVTVSS
VL: QIVMTQSPSTLSASVGDRVTITCRASQSISSWLAWYQQKPGKAPKLLIYDASSLESGVPSRFSGSGSGTEFTLTISSLQPDDFATYYCQQYNTYSWWTFGQGTKVEIK

Assays:
[1] = target: T1, post-fusion F protein from RSV strain 18537 B (human respiratory syncytial virus …, UniProt P13843 26-109; P13843 147-513); experiment: ELISA on coated antigen
T1 construct: also called RSV 18537 B; RSV 18537 B post-fusion F

[2] = target: T2, recombinant post-fusion RSV strain A2 F protein (human respiratory syncytial virus …, UniProt P03420 26-109; P03420 147-513); experiment: ELISA on coated antigen
T2 construct: Viral fusion glycoprotein, trimer of protomers (each cleaved into two disulfide-linked fragments); also called RSV A2; post-fusion RSV A2 F

[3] = target: F protein on infectious RSV strain A2 (human respiratory syncytial virus …, UniProt P03420 26-574); experiment: cell-based or functional assay
Target sequence in this assay (P03420 26-574): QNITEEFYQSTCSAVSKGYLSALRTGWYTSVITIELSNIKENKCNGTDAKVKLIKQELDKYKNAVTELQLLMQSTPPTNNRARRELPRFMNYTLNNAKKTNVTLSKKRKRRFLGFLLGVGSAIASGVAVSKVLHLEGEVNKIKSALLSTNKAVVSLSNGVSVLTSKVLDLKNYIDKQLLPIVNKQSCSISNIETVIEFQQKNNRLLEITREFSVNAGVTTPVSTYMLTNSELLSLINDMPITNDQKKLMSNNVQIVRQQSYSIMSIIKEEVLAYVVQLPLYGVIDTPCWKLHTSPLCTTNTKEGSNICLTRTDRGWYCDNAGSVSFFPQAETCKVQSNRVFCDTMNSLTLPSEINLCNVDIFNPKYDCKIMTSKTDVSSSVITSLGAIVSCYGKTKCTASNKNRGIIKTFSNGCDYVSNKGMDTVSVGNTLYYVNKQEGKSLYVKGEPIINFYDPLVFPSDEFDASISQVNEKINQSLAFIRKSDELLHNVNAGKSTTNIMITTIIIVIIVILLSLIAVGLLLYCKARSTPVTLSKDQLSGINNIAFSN

[4] = target: F protein on infectious RSV strain A2 (human respiratory syncytial virus …, UniProt P03420 26-574); experiment: cell-based or functional assay; remark: listed apart in the source
Target sequence in this assay (P03420 26-574): as above

T1 sequence (P13843 26-109, chain 1 of 2): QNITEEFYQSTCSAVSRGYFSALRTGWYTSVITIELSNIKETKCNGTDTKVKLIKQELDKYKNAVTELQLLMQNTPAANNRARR
T1 sequence (P13843 147-513, chain 2 of 2): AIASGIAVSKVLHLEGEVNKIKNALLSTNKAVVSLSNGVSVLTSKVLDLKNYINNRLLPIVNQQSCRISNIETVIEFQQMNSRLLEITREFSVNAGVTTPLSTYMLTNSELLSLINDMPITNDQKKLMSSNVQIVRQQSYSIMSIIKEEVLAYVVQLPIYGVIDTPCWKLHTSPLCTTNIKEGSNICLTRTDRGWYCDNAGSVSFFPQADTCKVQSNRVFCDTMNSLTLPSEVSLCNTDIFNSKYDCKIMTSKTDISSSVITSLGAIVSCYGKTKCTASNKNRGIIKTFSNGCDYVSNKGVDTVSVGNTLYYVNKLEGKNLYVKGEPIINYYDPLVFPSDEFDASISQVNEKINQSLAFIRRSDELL
T2 sequence (P03420 147-513, one chain of several): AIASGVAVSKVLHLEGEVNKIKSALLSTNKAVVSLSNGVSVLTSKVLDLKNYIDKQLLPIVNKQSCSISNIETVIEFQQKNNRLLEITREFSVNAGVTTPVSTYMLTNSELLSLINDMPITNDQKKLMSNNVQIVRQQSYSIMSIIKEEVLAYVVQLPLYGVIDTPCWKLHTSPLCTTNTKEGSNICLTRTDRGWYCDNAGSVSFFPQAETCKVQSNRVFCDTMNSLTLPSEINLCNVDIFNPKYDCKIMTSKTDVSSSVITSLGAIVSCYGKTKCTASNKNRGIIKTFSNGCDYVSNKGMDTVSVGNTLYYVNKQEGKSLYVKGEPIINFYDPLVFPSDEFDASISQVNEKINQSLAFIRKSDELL

Row | Binder | EC50 [1] | EC50 [2] | Neutralization (IC50; ng/mL) RSV A2, plaque-reduction assay [3] | Neutralization (IC50; ng/mL) RSV A2, plaque-reduction assay [4]
1 | B1 | 0.021 µg/mL | 0.017 µg/mL | – | –
2 | B2 | – | – | 21 ng/mL | –
3 | B3 | 0.035 µg/mL | 0.03 µg/mL | 123 ng/mL | –
4 | B4 | 0.02 µg/mL | 0.019 µg/mL | – | > 100000 ng/mL
5 | B5 | 0.033 µg/mL | 0.026 µg/mL | – | > 100000 ng/mL
6 | B6 | 0.05 µg/mL | 0.084 µg/mL | – | 377 ng/mL
7 | B7 | 0.024 µg/mL | 0.024 µg/mL | – | > 100000 ng/mL
8 | B8 | 0.064 µg/mL | 0.082 µg/mL | – | 55 ng/mL
9 | B9 | 0.04 µg/mL | 0.03 µg/mL | – | > 100000 ng/mL
10 | B10 | 0.057 µg/mL | 0.078 µg/mL | – | 695 ng/mL

Source: US20190240316A1 (VANDERBILT UNIVERSITY, published 2019)
